Positions of bridges follow the written chain, without caps; N, C: chain ends. Non-standard residues stand in square brackets, D forms with d. Residues, ends and D or L forms follow the SMILES beside them. d2Nal = N[C@H](Cc1ccc2ccccc2c1)C(=O)O
Assays:
[1] = Clinical signs during the TEEE pharmacokinetic study; type: in vivo, Male Sprague-Dawley rats; conditions: oral (2.5-10 mg/kg capsules) or intravenous (0.1, 1 mg/kg) administration, rats
Source text: Male Sprague-Dawley rats are ca 8-9 week old at onset of treatment (weight at onset of treatment, 348-398 g). Animals are allocated into groups of 3 rats/group. Immediately following arrival, animals are uniquely identified via an eartag. Animals are purchased from Charles River Canada (St-Constant, Canada). Following an examination by a qualified In-Life Specialist (including body weight determination), animals are acclimated to the testing facilities for ca 72 hr prior to test article administration. Room conditions are: temperature ca 20° C., humidity ca 50%. Animals are housed in solid bottom polycarbonate cages equipped with a filter top to avoid contamination, fed with standard certified rodent food (brand and lot no. to be documented in the raw data). The animals had continuous access to RO/UV water, via bottles. All rats are administered the compounds intravenously (Groups 1 and 2) in a jugular vein under light isoflurane anesthesia or orally by capsule (one per animal) using a specially designed capsule delivery tube (Groups 3-14). The dose volume is 5.0 ml/kg for groups 1 and 2 and one capsule/animal for Groups 3 to 14. Prior to dosing, each animal is weighed and the weight recorded. […] Plasma concentrations of each compound are determined using an LCMS assay (non-GLP) with an analytical range of ca 25-1000 ng/mL. […]

[2] = Maximum water solubility of TEEE; type: physicochemical
Description: The compound described is a selective IL-23 receptor antagonist peptide comprising D-amino acids with the formula cyclo-D-[…] (SEQ ID NO: 3), where any amino acid is a D-amino acid, MW: ca. 1039, hereafter designated TEEE, supplied by Allostera Pharma as a dry powder, and is formulated for intravenous at 0.02 and 0.2 mg/mL in sterile saline by dilution of an initial stock prepared at 2 mg/mL. Additionally, 4 different formulations of dry TEEE are prepared in gelatin capsules. For each type of dry formulation 10 capsules are prepared to contain enough test article in a way to deliver ca 2.5, 5.0 or 10 mg/kg. […] Solutions and capsules are stored at ca 4° C. upon until dose administration. The intravenous formulation is kept at room temperature pending dose administration. The final appearance of the intravenous formulations consists of clear solutions.

[3] = target: somatostatin receptor (SSTR) subtype 2 (Homo sapiens, UniProt P30874); conditions: cited from earlier work
Chain of somatostatin receptor (SSTR) subtype 2 (P30874 whole entry): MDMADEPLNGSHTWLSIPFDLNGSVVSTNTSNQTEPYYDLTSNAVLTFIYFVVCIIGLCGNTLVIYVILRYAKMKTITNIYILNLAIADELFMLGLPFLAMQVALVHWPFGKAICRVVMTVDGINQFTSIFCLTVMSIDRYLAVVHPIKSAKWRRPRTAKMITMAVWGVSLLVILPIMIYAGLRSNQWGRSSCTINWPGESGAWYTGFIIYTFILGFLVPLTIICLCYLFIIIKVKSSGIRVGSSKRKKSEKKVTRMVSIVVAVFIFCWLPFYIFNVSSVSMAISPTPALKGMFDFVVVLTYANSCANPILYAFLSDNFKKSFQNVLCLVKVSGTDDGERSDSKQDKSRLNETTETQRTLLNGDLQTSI

[4] = intranasal delivery; cited from earlier work

## cyclo-D-TEEEQQYL (cyclo([dT][dE][dE][dE][dQ][dQ][dY][dL]); SMILES CC(C)C[C@H]1NC(=O)[C@@H](Cc2ccc(O)cc2)NC(=O)[C@@H](CCC(N)=O)NC(=O)[C@@H](CCC(N)=O)NC(=O)[C@@H](CCC(=O)O)NC(=O)[C@@H](CCC(=O)O)NC(=O)[C@@H](CCC(=O)O)NC(=O)[C@@H]([C@H](C)O)NC1=O)
[1]
  clinical signs: No clinical signs
[2]
  maximum water solubility: approximately 10 mg/mL

## CC(C)[C@@H]1NC(=O)[C@H](CCCCN)NC(=O)[C@@H](Cc2c[nH]c3ccccc23)NC(=O)[C@H](Cc2ccc(O)cc2)NC(=O)[C@H](NC(=O)[C@H](N)Cc2ccc3ccccc3c2)CSSC[C@H](C(=O)N[C@H](C(N)=O)[C@@H](C)O)NC1=O [lanreotide, (4S,7S,10S,13R,16S,19S)-10-(4-aminobutyl)-19-[[(2R)-2-amino-3-naphthalen-2-yl-propanoyl]amino]-N-[(1S,2R)-1-carbamoyl-2-hydroxy-propyl]-16-[(4-hydroxyphenyl)methyl]-13-(1H-indol-3-ylmethyl)-6,9,12,15,18-pentaoxo-7-propan-2-yl-1,2-dithia-5,8,11,14,17-pentazacycloicosane-4-carboxamide] (H-[d2Nal][dC]Y[dW]KV[dC]T-NH2; disulfide 2-7)
[3]
  binding affinity: high

## calcitonin
[4]
  average bioavailability: about 3%

Reference: US20130034597A1, “ORALLY BIOAVAILABLE PEPTIDE DRUG COMPOSITIONS AND METHODS THEREOF” (AEGIS THERAPEUTICS LLC, priority 2011, published 2013)
